Data published in paper doi:10.1101/317651, “Poly(ADP-ribose) polymerase 1 Searches DNA via a ‘Monkey Bar’ Mechanism”.

Experiments:
Conditions in all cases: protein: recombinant; tags: His tag (Ni-NTA, pET28a); blunt
PARP1 W589A = PARP1 W589A (Homo sapiens, UniProt P09874 1-1014, W589A); assay: stopped-flow fluorescence anisotropy; K1; kinetically derived, Scheme 2 (no ternary complex); 50 mM Tris-HCl pH 7.5, 50 mM NaCl, 1 mM MgCl2, 0.1 mM EDTA, 0.01% IGEPAL; 20 °C (stated for association)
PARP1 ΔZn1 = PARP1 ΔZn1 (Homo sapiens, UniProt P09874 1-1014, del2-96); assay: stopped-flow fluorescence anisotropy; K1, first DNA; kinetically derived; 50 mM Tris-HCl pH 7.5, 50 mM NaCl, 1 mM MgCl2, 0.1 mM EDTA, 0.01% IGEPAL; 20 °C (stated for association)
PARP1 wild-type = PARP1 wild-type (Homo sapiens, UniProt P09874 1-1014); assay: as above
Chain of PARP1 wild-type (P09874 whole entry): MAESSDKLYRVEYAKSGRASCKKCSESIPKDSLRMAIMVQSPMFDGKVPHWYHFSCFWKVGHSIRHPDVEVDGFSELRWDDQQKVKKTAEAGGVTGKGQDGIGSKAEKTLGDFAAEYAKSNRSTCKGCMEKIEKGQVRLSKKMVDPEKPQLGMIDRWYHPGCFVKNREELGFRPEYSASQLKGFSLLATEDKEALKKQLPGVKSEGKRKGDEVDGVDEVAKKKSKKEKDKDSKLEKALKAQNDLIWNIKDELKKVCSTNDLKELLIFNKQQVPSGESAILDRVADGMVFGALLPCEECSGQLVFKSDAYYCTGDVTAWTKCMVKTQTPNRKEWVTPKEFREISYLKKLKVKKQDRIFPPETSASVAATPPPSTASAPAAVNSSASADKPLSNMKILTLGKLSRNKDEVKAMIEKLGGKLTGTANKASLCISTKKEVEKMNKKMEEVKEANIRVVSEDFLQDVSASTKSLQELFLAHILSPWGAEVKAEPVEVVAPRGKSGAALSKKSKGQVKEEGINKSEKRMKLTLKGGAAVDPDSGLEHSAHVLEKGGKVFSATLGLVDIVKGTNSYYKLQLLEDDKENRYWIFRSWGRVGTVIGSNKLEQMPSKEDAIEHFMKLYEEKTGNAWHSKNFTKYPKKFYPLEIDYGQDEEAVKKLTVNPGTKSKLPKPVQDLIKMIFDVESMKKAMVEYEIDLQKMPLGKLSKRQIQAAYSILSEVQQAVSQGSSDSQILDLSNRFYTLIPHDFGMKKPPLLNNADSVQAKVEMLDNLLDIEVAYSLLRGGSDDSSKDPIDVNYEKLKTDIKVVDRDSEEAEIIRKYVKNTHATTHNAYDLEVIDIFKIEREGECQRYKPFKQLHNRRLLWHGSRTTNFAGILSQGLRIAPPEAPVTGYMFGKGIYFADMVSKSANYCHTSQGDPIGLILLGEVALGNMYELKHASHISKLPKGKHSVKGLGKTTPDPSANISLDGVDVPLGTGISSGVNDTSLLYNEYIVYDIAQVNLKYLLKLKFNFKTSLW

Chain of PARP1 W589A (P09874 whole entry W589A): as the sequence (P09874 whole entry) above, with W589A counted along it
Chain of PARP1 ΔZn1 (P09874 other isoform, or with tags, fused parts or gaps del2-96 | mutant): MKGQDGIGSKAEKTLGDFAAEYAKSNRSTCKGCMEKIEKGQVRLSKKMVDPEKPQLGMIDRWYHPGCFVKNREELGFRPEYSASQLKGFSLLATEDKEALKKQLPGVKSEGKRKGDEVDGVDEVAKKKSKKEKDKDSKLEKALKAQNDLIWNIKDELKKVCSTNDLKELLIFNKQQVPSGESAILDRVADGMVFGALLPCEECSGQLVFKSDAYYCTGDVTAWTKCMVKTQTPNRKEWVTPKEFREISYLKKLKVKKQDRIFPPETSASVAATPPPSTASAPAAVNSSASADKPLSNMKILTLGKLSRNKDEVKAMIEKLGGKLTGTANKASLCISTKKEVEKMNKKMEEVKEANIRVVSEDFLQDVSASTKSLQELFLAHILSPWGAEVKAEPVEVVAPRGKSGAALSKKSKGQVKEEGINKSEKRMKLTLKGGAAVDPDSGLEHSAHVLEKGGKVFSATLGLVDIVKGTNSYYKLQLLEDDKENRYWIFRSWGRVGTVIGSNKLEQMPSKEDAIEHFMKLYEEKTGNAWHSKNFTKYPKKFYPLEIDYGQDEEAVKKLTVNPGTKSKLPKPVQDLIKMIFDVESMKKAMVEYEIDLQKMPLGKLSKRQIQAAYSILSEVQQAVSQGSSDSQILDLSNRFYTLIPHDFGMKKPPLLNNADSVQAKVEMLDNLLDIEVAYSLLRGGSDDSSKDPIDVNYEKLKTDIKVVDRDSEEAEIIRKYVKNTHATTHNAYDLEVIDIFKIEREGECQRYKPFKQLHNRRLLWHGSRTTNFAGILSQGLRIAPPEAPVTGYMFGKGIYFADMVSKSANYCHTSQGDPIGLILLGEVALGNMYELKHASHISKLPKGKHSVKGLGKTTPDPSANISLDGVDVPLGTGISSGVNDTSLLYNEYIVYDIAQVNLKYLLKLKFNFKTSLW

B1: p18mer* (dsDNA)
DNA 1: GGGTTGCGGCCGCTTGGG
DNA 2: CCCAAGCGGCCGCAACCC
modifications: 5'-phosphate
B1 gave a Kd (PARP1 W589A) of 4.9 ± 1.1 nM, a Kd (PARP1 ΔZn1) of under 2.7 nM and a Kd (PARP1 wild-type) of under 3.2 nM.
